Usually IC50 stands for the concentration that inhibits the measured activity by half. The low end stands for greater potency, the high end for weaker potency. The term Kd denotes the free concentration of one partner at which half of the binding sites on the other are occupied at equilibrium, for simple one-to-one binding. A higher Kd goes with lower affinity.

Our source for the IC50 and Kd values is patent US6710030 (dated 2004).

“And” between values parts separate entries of the source, which are not always exact repeats. Identical values can stand only once.

The target in assay [1] is T1, human platelet membrane glycoprotein (GP)IIb/IIIa (fibrinogen receptor, integrin αIIbβ3) on human platelets (human, UniProt P08514 32-1039; P05106 27-788).
Assay [2] has as its target canine platelet (GP)IIb/IIIa on canine platelets (canine, UniProt Q9TUN8 32-1036; A0A8I3PMU9 158-919).
The target of assay [3] is T1, human platelet membrane glycoprotein …. Nature of the assay: Scatchard analysis of CN binding to unactivated human platelets.

B1: contortrostatin (CN), homodimeric disintegrin purified from Agkistrodon contortrix contortrix (south (ligand)
chain: DAPANPCCDAATCKLTTGSQCADGLCCDQCKFMKEGTVCRRARGDDLDDYCNGISAGCPRNPFHA
notes: also called CTTX
Turning to B1, the IC50 is 25 nM and 0.4 µg/mL in assay [1]; 0.24 µg/mL in assay [2]. Also, binding in assay [3] was put at a Kd of 37 nM.
